Assay results reported in patent US20230071609A1 (Genentech, published 2023).

Experiments:
[1] = target: T1, endogenous human APOL1 (wild-type immortalized podocytes; also JHH-1 cells, kidney and liver tissue) (human, UniProt O14791 28-398); assay: flow cytometry, live WT and iAPOL1-G0 podocytes
T1 construct: whole, on cells; Cell or tissue and permeabilization are told under assay; also called podocyte APOL1; endogenous APOL1
T1 sequence (looked up): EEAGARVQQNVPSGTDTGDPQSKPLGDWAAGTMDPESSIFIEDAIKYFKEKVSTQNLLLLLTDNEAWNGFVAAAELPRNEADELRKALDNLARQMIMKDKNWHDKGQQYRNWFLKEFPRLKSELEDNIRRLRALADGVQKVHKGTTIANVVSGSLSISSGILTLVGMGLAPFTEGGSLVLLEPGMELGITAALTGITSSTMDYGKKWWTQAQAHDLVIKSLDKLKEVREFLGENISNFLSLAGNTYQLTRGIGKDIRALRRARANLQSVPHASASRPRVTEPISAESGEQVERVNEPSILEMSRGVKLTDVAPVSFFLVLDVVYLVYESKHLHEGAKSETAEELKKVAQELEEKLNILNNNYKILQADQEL
Experimental: (§1) Cells were harvested with 5 mM EDTA in PBS, washed once with growth media and twice with PBS. Approximately 0.5×10⁶/m1 of cells resuspended in PBS were incubated with anti-APOL1 antibodies for 1 h on ice. Following two PBS washes, 2 μg/ml of Alexa488 anti-mouse or anti-rabbit (Invitrogen A11029 and A21206, respectively) was used for 1 h on ice for detection. Cells were washed twice in PBS and resuspended in PBS with 1 μg/ml propidium iodide. Signals were read in a FACSCalibur3 (Becton Dickinson), with the exception of FIG. 8A and FIG. 14, which used a FACSCelesta, and data was analyzed using FlowJo v8.4.5. Mean fluorescence intensities were plotted in PRISM v7 after subtraction of secondary antibody alone background. For low pH experiments, cells were incubated with the antibodies in the presence of PBS pH 7.0 or PBS pH 5.5 for an hour on ice and detected with secondary antibodies at neutral pH.
More importantly, there were also differential APOL1 accessibilities between serum APOL1 and kidney disease-relevant podocytes (FIG. 18B). Some antibodies bound surface APOL1 in WT and iAPOL1 podocytes (FIG. 6A, 6B), but not circulating APOL1 (as judged by lack of trypanolytic blockade, FIG. 6C) and vice versa. […] Conversely, 3.3B6 and 4.17A5 were among the top trypanolytic blockers, but recognized the podocyte surface relatively weakly. […]

APOL1 peptide aa 364-385 = target: T2, APOL1 peptide aa 364-385 (human); assay: overlapping ~20-mer peptides (SPR, western blot)
T2 peptide: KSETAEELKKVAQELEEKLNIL
Experimental: (§2) Following three TBST washes, anti-mouse (GE Healthcare NA931V, 1:3000) or anti-rabbit HRP (Jackson 711-036-152, 1:8000) was added as secondary antibody. After 1 h, membranes were washed and protein detected using ECL prime (Amersham RPN2232) exposed to MR film (Kodak). Anti-actin HRP-conjugated antibody (clone 13E5, Cell Signaling Technologies 5125S at 1:5000) or calnexin (Abcam Ab22595 at 1:1000) was used as a loading control. For peptide mapping, 2 μl of 1 mM peptides in DMSO were boiled in 5× sample buffer and loaded on 10% Tris-Glycine gel and run using MES buffer. Cell pellets of Sf9 lysates were lysed in native RIPA (NP-40) lysis buffer and run on 10% Tris-Glycine gels.
A 96×96 array-based SPR imaging system (Carterra USA) was used for epitope mapping of anti-ApoL1 monoclonal antibodies. Briefly, purified monoclonal hybridoma antibodies were diluted at 10 μg/ml in 10 mM sodium acetate buffer pH 4.5. Using amine coupling, antibodies were directly immobilized onto a SPR sensorprism CMD 200M chip (XanTec Bioanalytics, Germany) using a Continuous Flow Microspotter (Carterra, USA) to create an array of antibodies. After coupling, the antibodies were blocked with ethanolamine, and primed with running buffer (10 mM HEPES, pH 7.4, 150 mM NaCl, 3 mM EDTA, and 0.005% Tween 20). […]

[2] = target: T1, endogenous human APOL1 (wild-type …); assay: summary of the Examples: podocyte flow cytometry
Experimental: as §1

[3] = target: T3, circulating APOL1 in normal human serum (human, UniProt O14791 28-398); assay: summary of the Examples: trypanolysis blocking as proxy for serum APOL1
T3 construct: mature; Serum of healthy volunteers; lipoprotein-associated; also called serum APOL1; HDL APOL1
T3 sequence (looked up): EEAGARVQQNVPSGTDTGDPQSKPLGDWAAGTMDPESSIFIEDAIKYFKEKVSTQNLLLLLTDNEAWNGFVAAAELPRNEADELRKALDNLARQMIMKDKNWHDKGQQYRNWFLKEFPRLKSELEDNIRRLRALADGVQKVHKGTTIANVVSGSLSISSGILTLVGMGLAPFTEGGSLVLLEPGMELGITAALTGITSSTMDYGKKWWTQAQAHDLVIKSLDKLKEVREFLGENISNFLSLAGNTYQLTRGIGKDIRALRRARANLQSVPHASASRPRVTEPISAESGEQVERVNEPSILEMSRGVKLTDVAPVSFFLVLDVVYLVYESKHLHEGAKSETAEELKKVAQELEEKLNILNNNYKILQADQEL
Experimental: The trypanolysis assay used herein to text specificity of antibodies for serum APOL1 is as follows. Trypanosoma brucei brucei were obtained from ATCC and cultured in HMI-9 media containing IMDM (Genentech), heat-inactivated (56° C. for 30 min) FBS (Seradigm IXL9/06807/GEN), 1% serum plus (Sigma 14008C), HMI-9 (Genentech) and 1% hypoxanthine (Genentech). Trypanosome lysis was performed by treating 1×10⁵ Trypanosomes with serial dilutions of NHS or recombinant APOL1 for 16 h in a total of 100 μl. Live cell read out was done by the Alamar Blue assay as per the manufacturer's protocol, (Thermo Fisher, DAL1100). Briefly 10 μl of Alamar Blue was added to each well, incubated at 37° C. for 4 h. Red fluorescence, indicating live trypanosomes, was measured on a SpectraMax® fluorimeter powered by SoftMAX® PRO with excitation at 530 nm and emission 590 nm. For the antibody blocking assay, 1% normal human serum was preincubated with 1-10 μg/ml of anti-APOL1 antibody or media at room temperature for 20 minutes followed by addition of trypanosomes. After 16 h, the Alamar Blue assay was performed as above and background values for media only were subtracted and % blocking calculated by normalizing to no antibody control.
Trypanosoma brucei brucei were obtained under MTA from ATCC and cultured in HMI-9 media containing IMDM (Genentech), heat-inactivated (56° C. for 30 min) FBS (Seradigm IXL9/06807/GEN), 1% serum plus (Sigma 14008C), HMI-9 (Genentech) and 1% hypoxanthine (Genentech). Trypanosome lysis was performed by treating 1×10⁵ Trypanosomes with serial dilutions of NHS or recombinant APOL1 for 16 h in a total of 100 μl. Live cell read out was done by the Alamar Blue assay as per the manufacturer's protocol (30) (Thermo Fisher, DAL1100). Briefly 10 μl of Alamar Blue was added to each well, incubated at 37° C. for 4 h. Red fluorescence, indicating live trypanosomes, was measured on a SpectraMax fluorimeter powered by SoftMAX PRO with excitation at 530 nm and emission 590 nm. For the antibody blocking assay, 1% normal human serum was preincubated with 1-10 μg/ml of anti-APOL1 antibody or media at room temperature for 20 mins followed by addition of trypanosomes.

[4] = target: T4, APOL1 very C-terminal peptide aa 376-398 (human); assay: overlapping ~20-mer peptides (SPR, western blot); antibody named in paragraph 192
T4 peptide: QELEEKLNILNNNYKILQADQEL
Experimental: as §2
A 96×96 array-based SPR imaging system (Carterra USA) was used for epitope mapping of anti-ApoL1 monoclonal antibodies. Briefly, purified monoclonal hybridoma antibodies were diluted at 10 μg/ml in 10 mM sodium acetate buffer pH 4.5. Using amine coupling, antibodies were directly immobilized onto a SPR sensorprism CMD 200M chip (XanTec Bioanalytics, Germany) using a Continuous Flow Microspotter (Carterra, USA) to create an array of antibodies. After coupling, the antibodies were blocked with ethanolamine, and primed with running buffer (10 mM HEPES, pH 7.4, 150 mM NaCl, 3 mM EDTA, and 0.005% Tween 20). Epitope mapping was performed by flowing 100 nM of different peptides of APOL1 across the immobilized anti-APOL1 antibodies on the biosensor chip at 25° C. in a running buffer of 10 mM HEPES, pH 7.4, 150 mM NaCl, 3 mM EDTA, and 0.005% Tween 20. After each flow through of the APOL1 peptide, the chip surface was regenerated using 10 mM glycine, pH 2.0.

[5] = target: T5, APOL1-G2 (deletion of N388 and Y389) (human, UniProt O14791 29-398); assay: flow cytometry, live CHO cells expressing full length native iAPOL1-G2
T5 construct: expressed in CHO cells (flow cytometry, lysates), COS cells and podocytes; also called iAPOL1-G2; APOL-G2
T5 sequence: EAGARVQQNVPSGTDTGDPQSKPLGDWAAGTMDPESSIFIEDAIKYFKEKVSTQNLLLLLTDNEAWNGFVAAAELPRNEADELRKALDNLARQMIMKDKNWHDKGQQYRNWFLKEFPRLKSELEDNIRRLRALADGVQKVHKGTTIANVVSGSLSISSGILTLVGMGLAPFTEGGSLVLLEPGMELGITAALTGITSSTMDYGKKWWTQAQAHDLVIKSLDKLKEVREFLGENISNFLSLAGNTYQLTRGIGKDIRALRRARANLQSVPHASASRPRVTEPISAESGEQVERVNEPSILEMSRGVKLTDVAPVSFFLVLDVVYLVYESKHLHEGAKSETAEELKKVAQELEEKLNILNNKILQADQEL

binding result (APOL1 peptide aa 364-385) | binding result [3] | binding result [4] | binding result [5] | Binder | binding result [1] | binding result [2]
– | – | – | – | antibody 3.3B6 (antibody, V domains shown, Mouse mAb, cloned as murine IgG2a LALAPG) VH: QVQLQQSGAELARPGASVKLSCKASGYTFTSHWMQWLKQRPGQGLEWIGAIYPGDGDTKFTQKFKDKATLTADKSSTTAYMQLSSLASEDSAVYYCARENLYGYYFDYWGQGTTLTVSS VL: QAVVTQESALTTSPGETVTLTCRSSTGAVTSGNFANWVQEKPDHLFTGLIGGADNRAPGVPARFSGSLIGDKAALIITGAQTEDEAIYFCALWYSDHWVFGGGTKLTVLG | binds | –
binds | – | – | – | antibody 4.29C4 (antibody, V domains shown, Mouse mAb, cloned as murine IgG2a LALAPG) VH: QVQLQQPGAELVRPGASVKLSCKASGYSFANYWMNWVKQRPGQGLEWIGMIHPSDSESRLSQRFKDKATLTVDKSSSTAYMQLNSPTSEDSAVYYCARLDYWGQGTSVTVSS VL: not shown | – | –
– | binds | binds | no binding (tested: 5 µg/ml) | antibody 4.11A10 (antibody, V domains shown, Mouse mAb, cloned as murine IgG2a LALAPG) VH: EVQLQQSGPELVKTGASVKISCKASGYSFTGYFMHWVKQSHGKSLEWIGYISCYNGVSVYNQRFKGKATFTIDTSSSTAYMQFNSLTSEDSAVYYCARDVLRYPRYAVDYWGQGTSVTVSS VL: not shown | – | binds
– | binds | binds | no binding (tested: 5 µg/ml) | antibody 4.11H11 (antibody, V domains shown, Mouse mAb, cloned as murine IgG2a LALAPG) VH: EVQVQQSGPELVKPGASMKISCKASGYSFIVYTMNWVKQSHGKNLEWIGLINPYNGGTIYNRKFKGKATLTVDKSSSTAYLELLSLTSEDSAVYYCARGALYRYEGAMDYWGQGTSVIVSS VL: QIVLSQFPAILSASPGEKVTMTCRASSSVIYVHWYQQKPGSSPKPWIYATSNLASGVPARFSGSGSGTSHSLTISRLEAEDTATYYCQQWSSNPLTFGAGTKLEIKR | – | binds
